Assay results from the supplement of paper PMC10567573.

B1: TPPP (parent)
chain: LCKDCQVIDGRNVTVTDVDIVFSK
B2: FAM46C (parent)
chain: FDHLQNRLIATKNPEEIRGGGLLK

Variants of: B1
Assay: protein stability index of a GFP-peptide fusion (GPS, HEK-293T) (PSI 1-6); higher = more stable
Conditions: c terminus: a fixed tail appended
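Further: lentivirally expressed fusions sorted by FACS into six bins by GFP to DsRed ratio, PSI derived from sequencing read proportions per bin multiplied by bin number.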

Protein stability index: each site, then its substitutions
S23: Q 2.6, R 2.35, T 2.23, W 2.31, Y 1.72
K24: A 2.24, C 2.02, D 2.77, E 3.39, G 2.55, H 2.48, L 2.99, N 3.05, P 2.62, Q 2.35, R 2.39, S 2.44, T 1.97, W 2.25, Y 2.06

Variants of: B2
Assay: as above
Conditions: c terminus: a fixed tail appended

Protein stability index, by site and new letter:
F1: C 2.3, D 5.18, E 4.33, G 3.9, H 4.47, I 3.5, K 4.45, L 4.51, M 4.39, N 4.4, P 4.59, Q 4.74, S 4.09, T 4.28, V 4.67, W 3.76, Y 3.27
D2: A 2.78, C 1.72, E 4.18, F 1.89, G 2.82, H 3.1, I 1.04, K 3.24, L 2.33, M 2.17, P 4.23, Q 4.32, R 3, S 4.75, T 1.93, Y 2.8
H3: A 3.72, C 3.63, D 4.52, E 4.28, F 2.06, G 3.79, I 3.59, L 3.25, M 3.71, N 3.05, P 4, Q 3.51, R 3.73, S 3.17, V 3.87, W 2.99
L4: A 3.78, D 4.02, F 3.87, G 5.22, H 4.79, I 3.24, M 4.04, N 4.14, P 4.62, Q 4.47, R 4.28, S 4.8, T 4.27, V 3.54, W 3.8, Y 3.85
Q5: A 4.57, C 3.96, E 3.82, F 3.27, H 3.87, I 3.17, K 3.67, L 2.17, M 2.92, N 3.44, P 3.63, R 2.86, S 4, T 3.99, V 3.33, W 1.08
N6: A 3.58, C 1.88, E 3.87, F 2.38, G 3.03, I 2.56, K 3.81, M 3.32, P 4.46, Q 4.1, S 3.31, T 1.91, V 2.55, Y 2.95
R7: A 4.42, C 3.37, D 4.65, E 4.55, F 3.82, G 3.09, H 4.35, I 3.67, K 4.19, L 2.94, M 3.54, P 4.07, Q 3.64, V 3.43, Y 2.99
L8: A 4.43, C 4.03, D 5.05, E 5.03, F 3.23, G 4.39, I 3.66, K 4.16, M 3.99, N 4.45, P 4.72, Q 5.05, R 3.72, S 4.62, T 4.34, V 2.97, W 4, Y 4.4
I9: A 4.86, C 4.43, D 3.5, F 3.53, G 4.3, H 3.05, K 4.27, L 4.44, M 3.58, N 4.06, Q 4.57, R 4.05, S 3.98, T 4.4, W 2.16, Y 3.56
A10: C 3.46, D 4.49, E 4
